Source: patent US20220412967A1, “METHOD FOR CAPTURING CANDIDATE SUBSTANCE THAT CAN BIND TO COMPLEX OF MR1 PROTEIN AND BETA2 MICROGLOBULIN PROTEIN, METHOD FOR PRODUCING CANDIDATE SUBSTANCE THAT CAN BIND TO COMPLEX OF MR1 PROTEIN AND BETA2 MICROGLOBULIN PROTEIN, AND METHOD FOR PRODUCING LIGAND CANDIDATE SUBSTANCE FOR MAIT CELL” (OSAKA UNIVERSITY, priority 2019, published 2022)

B1: soluble mouse β2 microglobulin protein (other)
b2m: IQKTPQIQVYSRHPPENGKPNILNCYVTQFHPPHIEIQMLKNGKKIPKVEMSDMSFSKDWSFYILAHTEFTPTETDTYACRVKHASMAEPKTVYWDRDM
notes: Recombinant from Escherichia coli; also called soluble mβ2m

Experiments:
[1] = molecular target: T1, complex of soluble mMR1A, soluble mβ2m and Ac6FP (Mus musculus, UniProt Q8HWB0); test: Thermodynamic stability of the complex (Tycho NT.6, F350/F330, 37 to 95° C.); format: physicochemical; settings: for melting point (inflection point of curve) of the complex: FIG. 1B
T1 construct: made in house
Description: When a MR1 protein, a β2 protein, and Ac6FP form a complex to form a normal folding, tryptophan in the protein can be measured at an absorbance of 330 nm. On the other hand, when the complex is heat treated and the complex is denatured, tryptophan in the protein is exposed by the thermal denaturation, and the tryptophan can be measured at an absorbance of 350 nm.
After mixing the soluble mMR1A and the soluble mβ2m obtained in Example 1 (1), Ac6FP (Cat. No.: 11.418, manufactured by Schircks Laboratories Co., Ltd.) was further added to the obtained mixed solution to form the complex in a buffer solution (reaction system of complex). The composition of the buffer was as follows: 100 mmol/l Tris-HCl (pH 8.1), 2 mmol/l EDTA (pH 8.1), 400 mmol/l L-Arginine, and 5 mol/1 Urea, and the pH was set to 8.1. In the reaction system of 250 ml of complex, the concentration of the soluble mMR1A was 30 μg/ml (total amount: 7.5 mg), the concentration of the soluble mβ2m was 30 μg/ml (total amount: 7.5 mg), and the concentration of Ac6FP was 8 μg/ml (total amount: 2 mg). The reaction temperature of the reaction system of the complex was set at 4° C., and the reaction time was set at 9 hours.
Sodium cyanoborohydride (NaBH3CN) was added to the obtained complex (0.01 mg/ml), so as to have a predetermined concentration (0, 0.005, 0.05, 0.5, or 5 mmol/1) and subjected to the reduction treatment at 4° C. for 5 minutes. Note that the pH in the reaction solution of the reduction reaction was set to about 7.2.
8 to 10 μl of a sample containing the complex after the reduction treatment was collected in a capillary and set to Tycho™ NT.6. The temperature was then increased to 37 to 95° C., and the thermodynamic stability of the complex was calculated from the melting point (an inflection point of curve).
FIGS. 1A and 1B are graphs of the thermodynamic stability of the complex. In FIGS. 1A and 1B, the horizontal axis indicates the temperature, and the vertical axis indicates the ratio of the absorbance at 350 nm (F350) to the absorbance at 330 nm (F330) (F350/F330). […]

[2] = molecular target: T2, soluble murine MR1 protein isoform A (mouse, UniProt Q8HWB0 19-288); test: refolding of E. coli proteins with the small-molecule ligand Ac6FP; complex then purified by anion exchange and gel filtration chromatography
T2 construct: also called soluble mMR1A; mMR1
Experimental: After the dialysis, the obtained sample was subjected to anion exchange chromatography under the purification condition 1 below to purify a crude purified product including the complex. After the start of the purification, the resultant was fractionated at 1 ml/fraction, and five fractions between 6 to 7 minutes from the start of purification were collected as fractions of the crude purified product.
Analytical instrument: AKTA pure25 (manufactured by GE Healthcare) Column: POROS™ HQ (manufactured by Applied Biosystems) [0108] […] 0 min: (A:B=100:0) [0111] 7.9 min: (A:B=50:50) Flow rate: 5 ml/min Fractionation volume: 1 ml/fraction
The obtained composition was then subjected to gel filtration chromatography under the purification condition 2 below to purify the complex from the crude purified product. After the start of the purification, the resultant was fractionated at 0.5 ml/fraction, and 4 fractions between 13 and 15 minutes from the start of purification were collected as a fraction containing the complex.

T1 sequence (Q8HWB0 19-288, one chain of several): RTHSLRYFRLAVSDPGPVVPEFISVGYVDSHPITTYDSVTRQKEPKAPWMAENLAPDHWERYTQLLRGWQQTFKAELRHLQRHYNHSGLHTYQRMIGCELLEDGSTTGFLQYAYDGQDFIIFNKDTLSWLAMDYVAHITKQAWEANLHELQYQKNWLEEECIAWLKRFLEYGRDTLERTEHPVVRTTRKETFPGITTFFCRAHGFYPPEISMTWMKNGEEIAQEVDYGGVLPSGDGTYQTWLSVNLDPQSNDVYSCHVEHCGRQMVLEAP
T2 sequence (Q8HWB0 19-288): as the sequence (Q8HWB0 19-288, one chain of several) above

Molecule | melting point (inflection point of curve) of the complex ([1]; control not subjected to the reduction treatment (0 mmol/l NaBH3CN)) [°C] | melting point of the complex versus control not subjected to the reduction treatment ([1]; reduction treatment with NaBH3CN (0.005 to 5 mmol/l), FIG. 1A) | melting point (inflection point of curve) of the complex ([1]; treated with 5 mmol/l of sodium cyanoborohydride, 4° C., 5 minutes, pH about 7.2) [°C] | binding result [2]
complex: complex formed from soluble mMR1A (SEQ ID NO: 10), soluble mβ2m (SEQ ID NO: 14) and the ligand Ac6FP | 72.2 | increased | 73.9 | –
B1 | – | – | – | binds
